Experimental data taken from paper PMC9650048.

Key:
[1] = target: histone deacetylase 1 (HDAC1), Xenopus (Xenopus laevis (endogenous in egg nucleoplasmic extract)); test: co-IP; sequential IPs from NPE diluted 5x in ELB (10 mM Hepes-KOH pH 7.7, 2.5 mM MgCl2, 50 mM KCl, 250 mM sucrose), serum or antibody on Protein-A Sepharose, 4 °C 120 min, three washes; first round HDAC1 or HDAC2 IP, second round the converse antibody on the supernatant; supernatant and pellet by Western blot
[2] = target: histone deacetylase 1 (HDAC1), Xenopus (Xenopus laevis (endogenous in egg nucleoplasmic extract)); test: immunodepletion (co-depletion), Western blot of the depleted extract; antibody on Protein-A Sepharose incubated with NPE at 4 °C for 1 h over two rounds; depleted extract blotted

- percent of HDAC2 removed by the HDAC1 IP [1]: 50%
- percent of HDAC2 codepleted with HDAC1 [2]: 50%
Substance: histone deacetylase 2 (HDAC2), Xenopus (enzyme)
